Reference: patent publication US20190382474A1 (SURFACE ONCOLOGY, published 2019)

T1: recombinant human IL-27 (human, UniProt Q14213 21-229; Q8NEV9 29-243)
T1 construct: Bought from R&D Systems (Cat. 2526-IL); also called hIL-27; rhIL-27
T1 sequence 1: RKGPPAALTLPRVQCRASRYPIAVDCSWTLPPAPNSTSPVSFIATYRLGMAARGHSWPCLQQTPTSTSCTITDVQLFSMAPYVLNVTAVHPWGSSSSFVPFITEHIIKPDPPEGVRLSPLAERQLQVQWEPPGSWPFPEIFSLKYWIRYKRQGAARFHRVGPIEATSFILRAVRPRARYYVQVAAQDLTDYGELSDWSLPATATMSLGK
T1 sequence 2: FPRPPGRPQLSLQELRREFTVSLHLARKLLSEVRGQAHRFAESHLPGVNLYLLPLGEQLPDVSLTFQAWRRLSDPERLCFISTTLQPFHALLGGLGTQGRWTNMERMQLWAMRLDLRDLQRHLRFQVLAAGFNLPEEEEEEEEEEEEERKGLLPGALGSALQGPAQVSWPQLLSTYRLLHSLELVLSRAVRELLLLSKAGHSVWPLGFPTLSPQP

T2: recombinant mouse IL-27 (mouse, UniProt O35228 19-228; Q8K3I6 29-234, limits assumed)
T2 construct: also called rodent recombinant IL-27
T2 sequence (looked up) 1: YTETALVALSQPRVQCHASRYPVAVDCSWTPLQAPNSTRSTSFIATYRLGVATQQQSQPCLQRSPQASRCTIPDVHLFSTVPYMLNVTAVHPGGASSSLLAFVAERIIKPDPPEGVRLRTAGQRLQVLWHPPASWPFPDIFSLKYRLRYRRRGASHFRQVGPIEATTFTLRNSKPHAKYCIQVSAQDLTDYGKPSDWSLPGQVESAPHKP
T2 sequence (looked up) 2: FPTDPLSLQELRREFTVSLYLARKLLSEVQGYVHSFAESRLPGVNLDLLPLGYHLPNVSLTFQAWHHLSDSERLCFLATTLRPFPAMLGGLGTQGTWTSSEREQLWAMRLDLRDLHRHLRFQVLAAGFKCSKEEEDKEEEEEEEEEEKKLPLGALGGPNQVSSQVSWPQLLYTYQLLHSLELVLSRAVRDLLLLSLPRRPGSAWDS


Key:
[1] = molecular target: T1, recombinant human IL-27; assay: SPR, hIL-27 on CM5 chip, bivalent analyte model (kd1)
Protocol: (§1) The antibodies were further characterized by surface plasmon resonance (SPR). Kinetic experiments were performed on a Biacore T200 (GE Healthcare, Uppsala, Sweden). All experiments were run at 25° C. with HBS-P+ running buffer (pH 7.4) (GE Healthcare, Little Chalfont, UK) using hIL-27 (R&D Systems, Abingdon, UK). Human IL-27 (hIL-27) antigen was captured on a CM5 chip to ˜16 RU. Immobilization was carried out at a protein concentration of 1 μg/mL in 10 mM acetate buffer pH 5.0. A three point, three-fold dilution range from 3.3 nM to 30 nM of antibody diluted in HBS-P+ buffer without regeneration between each concentration was used. The association phase for the three injections of increasing concentrations of antibody was monitored for 75 seconds each time and a single dissociation phase was measured for 250 seconds following the last injection of antibody. Regeneration of the hIL-27 surface was conducted using a single injection of 2M MgCl₂ for 120 s. Multiple repeats (n=4) of the chimeric antibody were performed throughout the assay to check the stability of the surface and analyte over the kinetic cycles.
(§2) Both 1:1 binding and bivalent analyte models were used to analyze the data due to the bivalent nature of the antibody. The results from the 1:1 binding model analysis are summarized in Table 4 and results from the bivalent analyte model are summarized in Table 5.

[2] = molecular target: T1, recombinant human IL-27; assay: SPR, hIL-27 on CM5 chip, bivalent analyte model
Protocol: as §1, §2

[3] = molecular target: T1, recombinant human IL-27; assay: SPR (Biacore T200), hIL-27 on CM5 chip, single cycle, 1:1 model
Protocol: as §1, §2

[4] = molecular target: T1, recombinant human IL-27; assay: SPR, hIL-27 on CM5 chip, bivalent analyte model (ka1)
Protocol: as §1, §2

[5] = molecular target: T2, recombinant mouse IL-27; assay: column 'Affinity mIL-27 (M)'; method not given
[6] = molecular target: T1, recombinant human IL-27; assay: column 'Affinity hIL-27 (M)', property (i); method not given, paragraph 885 names SPR (BIACORE 2000)

Row | koff [1] | ka2 [2] | kd2 [2] | Kd [3] | Relative KD to Ab7.1 [3] | koff [3] | kon [3] | kon [4] | binding result [5] | Kd [5] | Kd [6] | Binder
1 | 0.0026 s⁻¹ | 0.02 1/RUs | 0.053 s⁻¹ | 1.2 nM | 1.2 | 0.0018 s⁻¹ | 1.5e+06 M⁻¹ s⁻¹ | 740000 M⁻¹ s⁻¹ | – | – | – | Ab7.13 (antibody, human IgG1, kappa, V domains shown, human IgG1/kappa) VH: EVKLVESGGGLVQPGGSLRLSCAASGFTFTSYSMSWVRQAPGKGLEWVAYISYDGGSAYYPDTVKGRFTISRDNSKKTLYLQMNSLRAEDTAVYYCARHGDYDDDDAMDYWGQGTLVTVSS VL: DIQMTQSPSSLSASVGDRVTITCRASENIYSYLAWYQQKPGKAPKLLVYNAETLTEGVPSRFSGSGSGTDFTLTISSLQPEDFANYYCQHHYGTPLTFGQGTKLEIKR
2 | 0.0027 s⁻¹ | 0.043 1/RUs | 0.097 s⁻¹ | 1.5 nM | 1.5 | 0.0019 s⁻¹ | 1.2e+06 M⁻¹ s⁻¹ | 550000 M⁻¹ s⁻¹ | – | – | – | Ab7.21 (antibody, human IgG1, kappa, V domains shown, human IgG1/kappa) VH: EVQLVESGGGLVQPGGSLRLSCAASGFTFTSYSMSWVRQAPGKGLEWVSYISYDGGSAYYPDTVKGRFTISRDNSKNTLYLQMNSLRAEDTAVYYCARHGDYDDDDAMDYWGQGTLVTVSS VL: DIQMTQSPSSLSASVGDRVTITCRASENIYSYLAWYQQKPGKAPKLLVYNAETLTEGVPSRFSGSGSGTDFTLTISSLQPEDFANYYCQHHYGTPLTFGQGTKLEIKR
3 | 0.0026 s⁻¹ | 0.039 1/RUs | 0.099 s⁻¹ | 1.2 nM | 1.2 | 0.0018 s⁻¹ | 1.5e+06 M⁻¹ s⁻¹ | 700000 M⁻¹ s⁻¹ | – | – | – | Ab7.14 (antibody, human IgG1, kappa, V domains shown, human IgG1/kappa) VH: EVKLVESGGGLVQPGGSLRLSCAASGFTFTSYSMSWVRQAPGKGLEWVAYISYDGGSAYYPDTVKGRFTISRDNSKKTLYLQMNSLRAEDTAVYYCARHGDYDDDDAMDYWGQGTLVTVSS VL: DIQMTQSPSSLSASVGDRVTITCRASENIYSYLAWYQQKPGKAPKLLVYNAETLTEGVPSRFSGSGSGTDFTLTISSLQPEDFATYYCQHHYGTPLTFGQGTKLEIKR
4 | 0.0027 s⁻¹ | 0.04 1/RUs | 0.091 s⁻¹ | 1.5 nM | 1.4 | 0.0018 s⁻¹ | 1.3e+06 M⁻¹ s⁻¹ | 570000 M⁻¹ s⁻¹ | – | – | – | Ab7.16 (antibody, human IgG1, kappa, V domains shown, human IgG1/kappa) VH: EVQLVESGGGLVQPGGSLRLSCAASGFTFTSYSMSWVRQAPGKGLEWVAYISYDGGSAYYPDTVKGRFTISRDNSKNTLYLQMNSLRAEDTAVYYCARHGDYDDDDAMDYWGQGTLVTVSS VL: DIQMTQSPSSLSASVGDRVTITCRASENIYSYLAWYQQKQGKAPKLLVYNAETLTEGVPSRFSGSGSGTDFTLTISSLQPEDFANYYCQHHYGTPLTFGQGTKLDIKR
5 | 0.0027 s⁻¹ | 0.49 1/RUs | 1.11 s⁻¹ | 1.5 nM | 1.5 | 0.0019 s⁻¹ | 1.3e+06 M⁻¹ s⁻¹ | 580000 M⁻¹ s⁻¹ | – | – | – | Ab7.22 (antibody, human IgG1, kappa, V domains shown, human IgG1/kappa) VH: EVQLVESGGGLVQPGGSLRLSCAASGFTFTSYSMSWVRQAPGKGLEWVSYISYDGGSAYYPDTVKGRFTISRDNSKNTLYLQMNSLRAEDTAVYYCARHGDYDDDDAMDYWGQGTLVTVSS VL: DIQMTQSPSSLSASVGDRVTITCRASENIYSYLAWYQQKPGKAPKLLVYNAETLTEGVPSRFSGSGSGTDFTLTISSLQPEDFATYYCQHHYGTPLTFGQGTKLEIKR
6 | 0.0025 s⁻¹ | 0.036 1/RUs | 0.086 s⁻¹ | 1.4 nM | 1.4 | 0.0018 s⁻¹ | 1.3e+06 M⁻¹ s⁻¹ | 620000 M⁻¹ s⁻¹ | – | – | – | Ab7.20 (antibody, human IgG1, kappa, V domains shown, human IgG1/kappa) VH: EVQLVESGGGLVQPGGSLRLSCAASGFTFTSYSMSWVRQAPGKGLEWVSYISYDGGSAYYPDTVKGRFTISRDNSKNTLYLQMNSLRAEDTAVYYCARHGDYDDDDAMDYWGQGTLVTVSS VL: DIQMTQSPSSLSASVGDRVTITCRASENIYSYLAWYQQKQGKAPKLLVYNAETLTEGVPSRFSGSGSGTDFTLTISSLQPEDFANYYCQHHYGTPLTFGQGTKLDIKR
7 | 0.0028 s⁻¹ | 0.053 1/RUs | 0.11 s⁻¹ | 1.5 nM | 1.4 | 0.0019 s⁻¹ | 1.3e+06 M⁻¹ s⁻¹ | 570000 M⁻¹ s⁻¹ | – | – | – | Ab7.18 (antibody, human IgG1, kappa, V domains shown, human IgG1/kappa) VH: EVQLVESGGGLVQPGGSLRLSCAASGFTFTSYSMSWVRQAPGKGLEWVAYISYDGGSAYYPDTVKGRFTISRDNSKNTLYLQMNSLRAEDTAVYYCARHGDYDDDDAMDYWGQGTLVTVSS VL: DIQMTQSPSSLSASVGDRVTITCRASENIYSYLAWYQQKPGKAPKLLVYNAETLTEGVPSRFSGSGSGTDFTLTISSLQPEDFATYYCQHHYGTPLTFGQGTKLEIKR
8 | – | – | – | – | – | – | – | – | no binding | – | – | SRF416 (antibody, V domains shown, also called SRF416-A; SRF416-B) VH: QVQLQQWGAGLLKPSETLSLTCAVYGGSFSGYYWSWIRQPPGKGLEWIGEIDVDGSTNYNPSLKSRVTISVDTSKNQFSLKLSSVTAADTAVYYCARDGYYYDTSPYDVWGQGTMVTVSS VL: EIVLTQSPATLSLSPGERATLSCRASQSVSSYLAWYQQKPGQAPRLLIYDASNRATGIPARFSGSGSGTDFTLTISSLEPEDFAVYYCQQRDSFPLTFGGGTKVEIK
9 | – | – | – | – | – | – | – | – | no binding | – | – | SRF557 (antibody, V domains shown, also called SRF557-A; SRF557-B) VH: QVQLVQSGAEVKKPGSSVKVSCKASGGTFSSYAISWVRQAPGQGLEWMGGIIPIFGTANYAQKFQGRVTITADESTSTAYMELSSLRSEDTAVYYCARLGGRGYADEGWYFDLWGRGTLVTVSS VL: not shown
10 | – | – | – | – | – | – | – | – | – | 1.33 nM | 0.0059 nM | SRF529 (antibody, V domains shown, also called SRF529-A; SRF529-B) VH: EVQLVESGGGLVKPGGSLRLSCAASGFTFSSYSMNWVRQAPGKGLEWVSSISSSSSYIYYADSVKGRFTISRDNAKNSLYLQMNSLRAEDTAVYYCARDGGRTSYTATAHNWFDPWGQGTLVTVSS VL: not shown
11 | – | – | – | – | – | – | – | – | – | 80.5 nM | 0.048 nM | SRF536 (antibody, V domains shown, also called SRF536-A; SRF536-B) VH: QVQLQQWGAGLLKPSETLSLTCAVYGGSFSEYYWAWIRQPPGKGLEWIGEIDEVGSTNYNPSLKSRVTISVDTSKNQFSLKLSSVTAADTAVYYCARLPMYYYDSSDLPMDVWGQGTTVTVSS VL: not shown
12 | – | – | – | – | – | – | – | – | no binding | – | 1 nM | Ab7 (antibody, mouse hybridoma antibody (mIgG2a/kappa); also called isolated anti-EBI3 antibody Ab7; parental Ab7 antibody) heavy: EVKLVESGGGLVQPGGSLKLFCAASGFTFTSYSMSWVRQTPEKRLEWVAYISYDGGSAYYPDTVKGRFSISRDNAKKTLYLQMSSLKSEDTAMYYCARHGDYDDDDAMDYWGQGTSVTVSSAKTTAPSVYPLAPVCGDTTGSSVTLGCLVKGYFPEPVTLTWNSGSLSSGVHTFPAVLQSDLYTLSSSVTVTSSTWPSQSITCNVAHPASSTKVDKKIEPRGPTIKPCPPCKCPAPNLLGGPSVFIFPPKIKDVLMISLSPIVTCVVVDVSEDDPDVQISWFVNNVEVHTAQTQTHREDYNSTLRVVSALPIQHQDWMSGKEFKCKVNNKDLPAPIERTISKPKGSVRAPQVYVLPPPEEEMTKKQVTLTCMVTDFMPEDIYVEWTNNGKTELNYKNTEPVLDSDGSYFMYSKLRVEKKNWVERNSYSCSVVHEGLHNHHTTKSFSRTPGK light: DIQMTQSPASLSASVGETVTITCRASENIYSYLAWYQQKQGKSPQLLVYNAETLTEGVPSRFSGSGSGTQFSLKINSLQPEDFGNYYCQHHYGTPLTFGAGTKLDLKADAAPTVSIFPPSSEQLTSGGASVVCFLNNFYPKDINVKWKIDGSERQNGVLNSWTDQDSKDSTYSMSSTLTLTKDEYERHNSYTCEATHKTSTSPIVKSFNRNEC
